Test results published in the supplement of paper PMC10126150.
± gives the standard deviation of the averaged measurements.

Test system: ATP
Assay: switch fluorescence ratio, 500 uM ATP over buffer (Cy3 cluster intensity, sum of 5 cycles each) (fold (ratio)); higher = stronger signal-on switching upon ATP binding; sequences stand for … in TCGTCGGCAGCGTCAGATGTGTATAAGAGACAGTTTTTTTTTTTTTTTTTTTTTTTTT…TC
Settings: aptamer strand: ATP DNA aptamer (quencher-CACCTGGGGGAGTATTGCGGAGGAAGG + anchor), 100 nM annealed; ATP concentration: 500 uM
Outline: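 For every switch-domain sequence, the fluorescence ratio is the mean of per-cluster values, each being summed target-cycle Cy3 intensity over summed buffer-cycle Cy3 intensity. Clusters outside 100-1000 RFU were excluded. On a modified Illumina MiSeq flow-cell, the Cy3-labelled switching-strand clusters were annealed to 100 nM quencher-labelled ATP aptamer, imaged in selection buffer and then after 15 min with 500 uM ATP at 22 °C. Five such cycles were run, with NaOH stripping and re-annealing between them.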
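Also: ATP exposure 15 min at 22 °C before imaging.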

| Sequence | switch fluorescence ratio |
| --- | --- |
| ATGTTCACGG | 1.01 ± 0.033 |
| ATGTTGAGCT | 1.019 ± 0.0023 |
| ATGTTGGGAC | 1.02 ± 0.032 |
| ATGTTGTCGG | 0.987 ± 0.022 |
| ATGTTGTTGG | 0.9676 ± 0.007 |
| ATGTTTAATC | 0.986 ± 0.023 |
| ATGTTTATAG | 0.98 ± 0.024 |
| ATGTTTCTGA | 0.9851 ± 0.0032 |
| ATGTTTTATA | 1.02 ± 0.023 |
| ATGTTTTCTC | 0.993 ± 0.013 |
| ATGTTTTCTT | 0.998 ± 0.016 |
| ATGTTTTTAC | 0.949 ± 0.029 |
| ATGTTTTTTG | 0.982 ± 0.023 |
| ATTAAAAGA | 1.01 ± 0.023 |
| ATTAAAAGGA | 0.991 ± 0.073 |
| ATTAAAAGTG | 0.986 ± 0.013 |
| ATTAAAATAC | 1.09 ± 0.11 |
| ATTAAAGTGC | 0.999 ± 0.027 |
| ATTAAATATC | 1.03 ± 0.024 |
| ATTAAATGGG | 0.976 ± 0.036 |
| ATTAAATTCG | 1 ± 0.017 |
| ATTAAATTTT | 1.01 ± 0.032 |
| ATTAACTGCT | 0.9932 ± 0.0058 |
| ATTAAGCGGC | 1.05 ± 0.13 |
| ATTAAGGA | 1 ± 0.051 |
| ATTAAGGTCG | 1.07 ± 0.023 |

| Sequence | switch fluorescence ratio |
| --- | --- |
| ATTAAGGTGC | 1.31 ± 0.075 |
| ATTAAGTGTT | 0.984 ± 0.042 |
| ATTAATAGG | 0.997 ± 0.026 |
| ATTAATGGGT | 1.02 ± 0.027 |
| ATTAATGTTG | 1.054 ± 0.0067 |
| ATTACAACGA | 1.015 ± 0.0032 |
| ATTACATGTA | 0.9871 ± 0.0098 |
| ATTACGAAGA | 1.01 ± 0.011 |
| ATTACGCTGG | 1.01 ± 0.024 |
| ATTACTCTAC | 1.27 ± 0.025 |
| ATTACTTTTT | 1 ± 0.027 |
| ATTAGAAGGT | 0.994 ± 0.051 |
| ATTAGATGAC | 1.02 ± 0.016 |
| ATTAGCACGT | 1.023 ± 0.0031 |
| ATTAGCCCGG | 0.9944 ± 0.00051 |
| ATTAGCGAGA | 1.028 ± 0.0035 |
| ATTAGGAAAG | 0.998 ± 0.028 |
| ATTAGGACGT | 0.984 ± 0.032 |
| ATTAGGGTCT | 0.986 ± 0.025 |
| ATTAGGTTTC | 1.01 ± 0.062 |
| ATTAGTAAGA | 0.975 ± 0.011 |
| ATTAGTCCGG | 0.994 ± 0.03 |
| ATTAGTCGCG | 1.01 ± 0.014 |
| ATTAGTCGCT | 0.978 ± 0.019 |
| ATTAGTGTCA | 1 ± 0.035 |
| ATTAGTGTCG | 1.01 ± 0.046 |

| Sequence | switch fluorescence ratio |
| --- | --- |
| ATTAGTGTGG | 1 ± 0.033 |
| ATTAGTTCCG | 0.9814 ± 0.0025 |
| ATTATAAGGT | 1.06 ± 0.0055 |
| ATTATACAGC | 0.993 ± 0.025 |
| ATTATACTGG | 1 ± 0.033 |
| ATTATATCCC | 1.06 ± 0.026 |
| ATTATATGGT | 0.98 ± 0.029 |
| ATTATCGTAG | 0.994 ± 0.035 |
| ATTATCTAAT | 1 ± 0.017 |
| ATTATGGACG | 1.06 ± 0.073 |
| ATTATGGGGG | 0.996 ± 0.036 |
| ATTATGGGT | 0.9931 ± 0.0086 |
| ATTATGGTTC | 1 ± 0.021 |
| ATTATGTCTT | 0.9878 ± 0.0094 |
| ATTATTATGG | 1.01 ± 0.015 |
| ATTATTGATA | 0.997 ± 0.036 |
| ATTATTGGCA | 0.999 ± 0.0024 |
| ATTATTGGGC | 0.981 ± 0.035 |
| ATTATTTTAC | 0.976 ± 0.036 |
| ATTCAACGGT | 1.02 ± 0.0048 |
| ATTCAAGCCT | 1.15 ± 0.047 |
| ATTCACATAT | 1.11 ± 0.02 |
| ATTCACGGGC | 1.08 ± 0.035 |
| ATTCAGAGTG | 0.965 ± 0.02 |
| ATTCAGATCG | 0.999 ± 0.034 |
| ATTCAGTTAT | 0.997 ± 0.021 |

| Sequence | switch fluorescence ratio |
| --- | --- |
| ATTCAGTTGG | 0.9776 ± 0.0071 |
| ATTCATAGGT | 0.992 ± 0.014 |
| ATTCATGCTC | 1.03 ± 0.031 |
| ATTCATTGTC | 1.09 ± 0.11 |
| ATTCCAAGTG | 1.03 ± 0.056 |
| ATTCCCGGGG | 1.06 ± 0.059 |
| ATTCCCGGTC | 1.01 ± 0.066 |
| ATTCCGATTG | 1.07 ± 0.031 |
| ATTCGGAATA | 1.06 ± 0.016 |
| ATTCGGGAAG | 1.003 ± 0.0078 |
| ATTCGGGACC | 0.973 ± 0.019 |
| ATTCGGGGGT | 0.993 ± 0.023 |
| ATTCGGTCGA | 0.976 ± 0.039 |
| ATTCGTTCGA | 0.9955 ± 0.0033 |
| ATTCGTTTGT | 0.9869 ± 0.0038 |
| ATTCTACGGA | 1.02 ± 0.021 |
| ATTCTAGGA | 0.985 ± 0.02 |
| ATTCTAGGTA | 1 ± 0.015 |
| ATTCTATATC | 0.97 ± 0.021 |
| ATTCTCGTGG | 0.997 ± 0.036 |
| ATTCTGATGC | 1.05 ± 0.0092 |
| ATTCTGCGGA | 1.01 ± 0.019 |
| ATTCTGGGGA | 0.988 ± 0.026 |
| ATTCTGGTGG | 1.01 ± 0.046 |
| ATTCTTTACA | 1.06 ± 0.014 |
| ATTCTTTTGC | 1.03 ± 0.06 |

| Sequence | switch fluorescence ratio |
| --- | --- |
| ATTGAAATCA | 0.987 ± 0.018 |
| ATTGAACGGA | 1 ± 0.059 |
| ATTGAAGCCT | 1.15 ± 0.013 |
| ATTGAAGGCA | 0.966 ± 0.011 |
| ATTGAAGTGC | 1.01 ± 0.02 |
| ATTGAATAGG | 1.0089 ± 0.0003 |
| ATTGAATTAG | 0.961 ± 0.011 |
| ATTGACCCCT | 1.08 ± 0.015 |
| ATTGACGATC | 0.994 ± 0.016 |
| ATTGACGTAC | 1.76 ± 0.083 |
| ATTGAGCGGT | 0.983 ± 0.039 |
| ATTGAGGCTC | 0.985 ± 0.012 |
| ATTGATGAGT | 0.993 ± 0.04 |
| ATTGATGATT | 0.993 ± 0.0075 |
| ATTGATTAGG | 0.988 ± 0.043 |
| ATTGATTCAA | 0.996 ± 0.02 |
| ATTGATTGCT | 0.9989 ± 0.0036 |
| ATTGATTTTT | 1.01 ± 0.019 |
| ATTGCATTAA | 0.985 ± 0.033 |
| ATTGCGGGCC | 1.02 ± 0.047 |
| ATTGCGGGGA | 0.9848 ± 0.0072 |
| ATTGCTTTTG | 0.99799 ± 0.00028 |
| ATTGGAAGAC | 1.06 ± 0.12 |
| ATTGGACATC | 1.11 ± 0.11 |
| ATTGGAGCGT | 0.986 ± 0.0013 |
| ATTGGAGTAT | 0.9776 ± 0.0089 |

| Sequence | switch fluorescence ratio |
| --- | --- |
| ATTGGCACGG | 0.986 ± 0.034 |
| ATTGGCTAGG | 0.999 ± 0.037 |
| ATTGGCTGAC | 1.13 ± 0.029 |
| ATTGGCTGGT | 0.9998 ± 0.0052 |
| ATTGGCTTTT | 0.965 ± 0.011 |
| ATTGGGAAGG | 0.965 ± 0.039 |
| ATTGGGATGG | 1 ± 0.014 |
| ATTGGGCAGC | 1 ± 0.027 |
| ATTGGGGCTT | 1.01 ± 0.018 |
| ATTGGGGGTA | 0.977 ± 0.028 |
| ATTGGGGGTT | 0.978 ± 0.018 |
| ATTGGTAGGG | 0.9858 ± 0.004 |
| ATTGGTGCT | 1.001 ± 0.007 |
| ATTGGTGTAA | 1.01 ± 0.015 |
| ATTGGTTGGT | 0.978 ± 0.048 |
| ATTGTAATTT | 1.01 ± 0.026 |
| ATTGTACGGT | 1.03 ± 0.013 |
| ATTGTAGTCA | 0.973 ± 0.019 |
| ATTGTATTTT | 0.979 ± 0.022 |
| ATTGTGAGGG | 0.993 ± 0.011 |
| ATTGTGGATC | 1.03 ± 0.031 |
| ATTGTGGGGC | 1 ± 0.022 |
| ATTGTGGGGG | 0.991 ± 0.016 |
